Sequences and labels used below:
B1: PBXIP1 (parent)
chain: FGEDGIFRHDRLRFRDFVDALEDS
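Note: lentivirally expressed fusions sorted by FACS into six bins by GFP to DsRed ratio, PSI derived from sequencing read proportions per bin multiplied by bin number.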

The variants in this data set derive from B1. In words: protein stability index of a GFP-peptide fusion (GPS, HEK-293T) (PSI 1-6); higher = more stable. The following applies: c terminus: a fixed tail appended.
With FGEDGIFRHDRLRFRDFLDALEDS, the protein stability index is 3.32.

Consider FGEDGIFRHDRLRFRDFYDALEDS, for which the protein stability index was 2.4.

Consider FGEDGIFRHDRLRFRDFKDALEDS, for which the protein stability index was 3.13.

With FGEDGIFRHDRLRFRDFPDALEDS, the protein stability index was 2.94.

With FGEDGIFRHDRLRFRDFADALEDS, the protein stability index worked out at 2.73.

With FGEDGIFRHDRLRFRDFFDALEDS, the protein stability index was found to be 2.45.

As to FGEDGIFRHDRLRFRDFWDALEDS, the protein stability index stood at 2.07.

Turning to FGEDGIFRHDRLRFRDFMDALEDS, the protein stability index came to 2.87.

Turning to FGEDGIFRHDRLRFRDFTDALEDS, the protein stability index is 3.27.

Turning to FGEDGIFRHDRLRFRDFSDALEDS, the protein stability index amounted to 3.11.

Consider FGEDGIFRHDRLRFRDFIDALEDS, for which the protein stability index worked out at 2.17.

As for FGEDGIFRHDRLRFRDFHDALEDS, the protein stability index was 2.53.

Regarding FGEDGIFRHDRLRFRDFNDALEDS, the protein stability index was found to be 3.14.

As for FGEDGIFRHDRLRFRDFGDALEDS, the protein stability index is 3.16.

As to FGEDGIFRHDRLRFRDFRDALEDS, the protein stability index turned out to be 3.05.

As to FGEDGIFRHDRLRFRDFCDALEDS, the protein stability index turned out to be 3.3.

As for FGEDGIFRHDRLRFRDFQDALEDS, the protein stability index is 3.49.

Take FGEDGIFRHDRLRFRDFEDALEDS: the protein stability index was found to be 3.5.

For the variant FGEDGIFRHDRLRFRDFDDALEDS, the protein stability index worked out at 3.1.

Consider FGEDGIFRHDRLRFRDTVDALEDS, for which the protein stability index is 3.61.

Regarding FGEDGIFRHDRLRFRDRVDALEDS, the protein stability index was 3.69.

Take FGEDGIFRHDRLRFRDNVDALEDS: the protein stability index amounted to 3.55.

For FGEDGIFRHDRLRFRDDVDALEDS, the protein stability index worked out at 3.68.

Turning to FGEDGIFRHDRLRFRDIVDALEDS, the protein stability index was 3.19.

FGEDGIFRHDRLRFRDMVDALEDS: the protein stability index is 3.38.

Turning to FGEDGIFRHDRLRFRDVVDALEDS, the protein stability index is 3.38.

For FGEDGIFRHDRLRFRDYVDALEDS, the protein stability index turned out to be 2.97.

On to FGEDGIFRHDRLRFRDEVDALEDS, for which the protein stability index turned out to be 3.98.

In the case of FGEDGIFRHDRLRFRDHVDALEDS, the protein stability index was determined as 3.25.

With FGEDGIFRHDRLRFRDQVDALEDS, the protein stability index turned out to be 3.58.

Consider FGEDGIFRHDRLRFRDGVDALEDS, for which the protein stability index came out at 3.57.

On to FGEDGIFRHDRLRFRDLVDALEDS, for which the protein stability index turned out to be 2.77.

In the case of FGEDGIFRHDRLRFRDSVDALEDS, the protein stability index came out at 3.69.

Consider FGEDGIFRHDRLRFRDWVDALEDS, for which the protein stability index came to 2.79.

As for FGEDGIFRHDRLRFRDCVDALEDS, the protein stability index amounted to 3.12.

Take FGEDGIFRHDRLRFRDKVDALEDS: the protein stability index was determined as 3.09.

As to FGEDGIFRHDRLRFRDAVDALEDS, the protein stability index was 3.46.

FGEDGIFRHDRLRFRDPVDALEDS: the protein stability index is 3.44.

With FGEDGIFRHDRLRQRDFVDALEDS, the protein stability index is 3.46.

In the case of FGEDGIFRHDRLRDRDFVDALEDS, the protein stability index came out at 3.84.

FGEDGIFRHDRLRPRDFVDALEDS: the protein stability index amounted to 3.01.

As to FGEDGIFRHDRLRWRDFVDALEDS, the protein stability index was found to be 2.2.

FGEDGIFRHDRLRKRDFVDALEDS: the protein stability index is 3.38.

FGEDGIFRHDRLRSRDFVDALEDS: the protein stability index came out at 3.81.

Turning to FGEDGIFRHDRLRMRDFVDALEDS, the protein stability index stood at 3.23.

Regarding FGEDGIFRHDRLRERDFVDALEDS, the protein stability index came to 3.86.

As for FGEDGIFRHDRLRIRDFVDALEDS, the protein stability index worked out at 2.86.

For FGEDGIFRHDRLRVRDFVDALEDS, the protein stability index came out at 3.05.

For FGEDGIFRHDRLRNRDFVDALEDS, the protein stability index came to 3.71.

Take FGEDGIFRHDRLRHRDFVDALEDS: the protein stability index stood at 2.87.

With FGEDGIFRHDRLRGRDFVDALEDS, the protein stability index was 3.67.

Consider FGEDGIFRHDRLRYRDFVDALEDS, for which the protein stability index was determined as 2.57.

As for FGEDGIFRHDRLRLRDFVDALEDS, the protein stability index was 2.96.

In the case of FGEDGIFRHDRLRTRDFVDALEDS, the protein stability index amounted to 3.62.

FGEDGIFRHDRLRRRDFVDALEDS: the protein stability index is 3.37.

In the case of FGEDGIFRHDRLRCRDFVDALEDS, the protein stability index was 1.99.

FGEDGIFRHDRLRFRHFVDALEDS: the protein stability index is 2.09.

As for FGEDGIFRHDRLRFRKFVDALEDS, the protein stability index was 1.99.

Regarding FGEDGIFRHDRLRFRNFVDALEDS, the protein stability index was found to be 1.89.

With FGEDGIFRHDRLRFRPFVDALEDS, the protein stability index was 2.27.

For the variant FGEDGIFRHDRLRFRYFVDALEDS, the protein stability index amounted to 1.88.

In the case of FGEDGIFRHDRLRFRLFVDALEDS, the protein stability index stood at 1.55.

Consider FGEDGIFRHDRLRFRIFVDALEDS, for which the protein stability index came out at 2.06.

Turning to FGEDGIFRHDRLRFRSFVDALEDS, the protein stability index is 2.23.

For FGEDGIFRHDRLRFRTFVDALEDS, the protein stability index was found to be 2.08.

With FGEDGIFRHDRLRFREFVDALEDS, the protein stability index came out at 3.17.

In the case of FGEDGIFRHDRLRFRAFVDALEDS, the protein stability index stood at 2.41.

FGEDGIFRHDRLRFRVFVDALEDS: the protein stability index was found to be 2.43.

In the case of FGEDGIFRHDRLRFRFFVDALEDS, the protein stability index was 2.12.

As to FGEDGIFRHDRLRFRWFVDALEDS, the protein stability index is 1.85.

Take FGEDGIFRHDRLRFRGFVDALEDS: the protein stability index stood at 1.97.

Take FGEDGIFRHDRLRFRCFVDALEDS: the protein stability index was determined as 3.01.

As to FGEDGIFRHDRLRFRQFVDALEDS, the protein stability index is 2.42.

Consider FGEDGIFRHDRLRFRMFVDALEDS, for which the protein stability index was found to be 1.78.

Consider FGEDGIFRHDRLRFRRFVDALEDS, for which the protein stability index was determined as 2.36.

Turning to FGEDGIFRHDRLRFEDFVDALEDS, the protein stability index was found to be 3.61.

On to FGEDGIFRHDRLRFQDFVDALEDS, for which the protein stability index amounted to 3.06.

In the case of FGEDGIFRHDRLRFADFVDALEDS, the protein stability index came out at 2.38.

Consider FGEDGIFRHDRLRFWDFVDALEDS, for which the protein stability index came out at 1.97.

For FGEDGIFRHDRLRFPDFVDALEDS, the protein stability index was 3.36.

In the case of FGEDGIFRHDRLRFCDFVDALEDS, the protein stability index came out at 2.79.

For FGEDGIFRHDRLRFGDFVDALEDS, the protein stability index amounted to 3.41.

Regarding FGEDGIFRHDRLRFLDFVDALEDS, the protein stability index worked out at 2.48.

In the case of FGEDGIFRHDRLRFHDFVDALEDS, the protein stability index is 2.48.

Turning to FGEDGIFRHDRLRFVDFVDALEDS, the protein stability index came out at 2.02.

FGEDGIFRHDRLRFMDFVDALEDS: the protein stability index is 2.54.

Take FGEDGIFRHDRLRFKDFVDALEDS: the protein stability index was found to be 2.9.

Turning to FGEDGIFRHDRLRFIDFVDALEDS, the protein stability index was determined as 2.23.

With FGEDGIFRHDRLRFTDFVDALEDS, the protein stability index turned out to be 2.44.

In the case of FGEDGIFRHDRLRFFDFVDALEDS, the protein stability index was found to be 2.68.

With FGEDGIFRHDRLRFYDFVDALEDS, the protein stability index was 2.22.

Take FGEDGIFRHDRLRFNDFVDALEDS: the protein stability index is 3.38.

Consider FGEDGIFRHDRLRFDDFVDALEDS, for which the protein stability index turned out to be 2.87.

Take FGEDGIFRHDRLRFSDFVDALEDS: the protein stability index worked out at 2.54.
